# Experiments:
# [1] = target: monomeric carbohydrate-recognition domain (CRD) of rat macrophage galactose lectin (MGL) (rat) (UniProt P49301); test: radioligand binding; competition: CRD or ECD of MGL coated on polystyrene wells, 125I-labeled Gal-BSA as reporter ligand, competing ligand titrated; KI = concentration for 50% inhibition
# [2] = target: trimeric extracellular domain (ECD) of rat macrophage galactose lectin (MGL) (rat) (UniProt P49301); test: as above
# [3] = target: monomeric carbohydrate-recognition domain (CRD) from DC-SIGN (UniProt Q9NNX6); test: radioligand binding; competition: CRD of DC-SIGN immobilised on polystyrene wells, 125I-labeled mannose-BSA as reporter ligand, competing ligand titrated; KI = concentration for 50% inhibition
# [4] = target: monomeric carbohydrate-recognition domain (CRD) from DC-SIGN (UniProt Q9NNX6); test: SPR; BiaCore 3000, CM5 chip; CRD of DC-SIGN immobilised, glycopeptide from SBA in the fluid phase; steady state; 10 mM Hepes, 150 mM NaCl, 5 mM CaCl2, 0.005% P20, pH 7.4, 25 °C
# [5] = target: Man9GlcNAc2 glycopeptide isolated from soybean agglutinin (soybean); test: SPR; BiaCore 3000, CM5 chip; SBA or its glycopeptide amine-coupled, monomeric CRD of DC-SIGN flowed over; steady state, simple saturation model with linear background; 10 mM Hepes, 150 mM NaCl, 5 mM CaCl2, 0.005% P20, pH 7.4, 25 °C
# trimeric extracellular domain (ECD) of rat macrophage galactose lectin (MGL) (rat), sequence (P49301 59-306, tags left off): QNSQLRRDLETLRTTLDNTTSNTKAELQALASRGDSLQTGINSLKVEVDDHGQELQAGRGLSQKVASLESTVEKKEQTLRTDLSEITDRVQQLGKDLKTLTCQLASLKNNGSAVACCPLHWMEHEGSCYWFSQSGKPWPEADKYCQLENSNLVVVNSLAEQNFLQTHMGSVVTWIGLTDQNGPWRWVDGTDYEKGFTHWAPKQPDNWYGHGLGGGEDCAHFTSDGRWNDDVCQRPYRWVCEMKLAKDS
# monomeric carbohydrate-recognition domain (CRD) of rat macrophage galactose lectin (MGL) (rat), sequence (P49301 165-306): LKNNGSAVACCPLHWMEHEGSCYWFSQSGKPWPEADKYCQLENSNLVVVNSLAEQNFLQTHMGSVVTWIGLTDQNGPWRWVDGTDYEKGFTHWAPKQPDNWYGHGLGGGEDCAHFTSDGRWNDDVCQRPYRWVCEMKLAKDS
# monomeric carbohydrate-recognition domain (CRD) from DC-SIGN, sequence (Q9NNX6 250-404): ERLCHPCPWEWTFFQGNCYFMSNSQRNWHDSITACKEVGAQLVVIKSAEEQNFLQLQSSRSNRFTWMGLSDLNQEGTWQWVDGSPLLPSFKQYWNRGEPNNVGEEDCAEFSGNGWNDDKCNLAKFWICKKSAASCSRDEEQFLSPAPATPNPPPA
Ki [1],Ki [2],Ki [3],Kd [4],fold lower affinity than for intact SBA [5],Substance
1.4 µM,0.65 µM,,,,"asialo-orosomucoid OR-5 (five glycosylation sites, expressed in Chinese hamster ovary cells) (from UniProt P02763 19-201) (natural protein)"
,,,,15 fold,monomeric carbohydrate-recognition domain (CRD) from DC-SIGN (from UniProt Q9NNX6 250-404) (domain or fragment)

# The remaining lines, values behind:
Substance,Ki [1],Ki [2],Ki [3],Kd [4],fold lower affinity than for intact SBA [5]
desialylated tri-antennary glycopeptide isolated from fetuin,260 µM,160 µM,,,
Man9GlcNAc2 glycopeptide isolated from soybean agglutinin,,,68 µM,76 µM,
asialo-orosomucoid derived from human blood (from UniProt P02763 19-201) (natural protein),0.12 µM,0.18 µM,,,

# Reference: PMC2824085
